Laboratory results reported in US20080248994A1 (GOVERNMENT OF THE UNITED STATES OF AMERICA AS REPRESENTED …, published 2008).

T1: hypophosphorylated pRb (endogenous, differentiated C2C12 myotubes, DM) (mouse, UniProt P13405 2-921, hypophosphorylated (sites not given))
T1 construct: Endogenous protein in extracts of cells kept in differentiation medium for 36 hr
T1 sequence (looked up): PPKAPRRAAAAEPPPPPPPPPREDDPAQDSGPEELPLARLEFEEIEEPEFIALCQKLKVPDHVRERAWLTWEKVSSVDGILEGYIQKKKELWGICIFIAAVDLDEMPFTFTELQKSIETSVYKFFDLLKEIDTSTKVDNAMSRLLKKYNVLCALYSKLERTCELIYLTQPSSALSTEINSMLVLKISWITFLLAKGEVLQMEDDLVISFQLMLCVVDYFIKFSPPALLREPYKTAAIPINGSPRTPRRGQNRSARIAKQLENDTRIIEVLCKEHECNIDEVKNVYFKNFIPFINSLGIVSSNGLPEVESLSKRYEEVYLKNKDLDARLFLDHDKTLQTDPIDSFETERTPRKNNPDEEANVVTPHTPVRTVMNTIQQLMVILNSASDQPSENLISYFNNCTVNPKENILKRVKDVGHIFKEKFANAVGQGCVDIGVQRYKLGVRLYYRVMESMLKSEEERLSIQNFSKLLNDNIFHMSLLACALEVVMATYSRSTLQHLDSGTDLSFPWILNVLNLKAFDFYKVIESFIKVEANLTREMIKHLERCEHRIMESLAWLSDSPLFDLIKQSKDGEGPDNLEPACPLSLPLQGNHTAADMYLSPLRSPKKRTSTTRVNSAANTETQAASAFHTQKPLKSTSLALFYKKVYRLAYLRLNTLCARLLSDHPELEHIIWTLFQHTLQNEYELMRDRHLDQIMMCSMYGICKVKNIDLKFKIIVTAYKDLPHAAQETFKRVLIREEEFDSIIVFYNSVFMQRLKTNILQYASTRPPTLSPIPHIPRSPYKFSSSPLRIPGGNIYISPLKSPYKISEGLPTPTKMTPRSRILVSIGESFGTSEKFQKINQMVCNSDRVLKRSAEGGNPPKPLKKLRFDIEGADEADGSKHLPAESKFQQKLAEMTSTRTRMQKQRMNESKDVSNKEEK

T2: hyperphosphorylated pRb (endogenous, proliferating C2C12 myoblasts, GM) (mouse, UniProt P13405 2-921, hyperphosphorylated (sites not given))
T2 construct: Endogenous protein in extracts of cells kept in growth medium
T2 sequence (looked up): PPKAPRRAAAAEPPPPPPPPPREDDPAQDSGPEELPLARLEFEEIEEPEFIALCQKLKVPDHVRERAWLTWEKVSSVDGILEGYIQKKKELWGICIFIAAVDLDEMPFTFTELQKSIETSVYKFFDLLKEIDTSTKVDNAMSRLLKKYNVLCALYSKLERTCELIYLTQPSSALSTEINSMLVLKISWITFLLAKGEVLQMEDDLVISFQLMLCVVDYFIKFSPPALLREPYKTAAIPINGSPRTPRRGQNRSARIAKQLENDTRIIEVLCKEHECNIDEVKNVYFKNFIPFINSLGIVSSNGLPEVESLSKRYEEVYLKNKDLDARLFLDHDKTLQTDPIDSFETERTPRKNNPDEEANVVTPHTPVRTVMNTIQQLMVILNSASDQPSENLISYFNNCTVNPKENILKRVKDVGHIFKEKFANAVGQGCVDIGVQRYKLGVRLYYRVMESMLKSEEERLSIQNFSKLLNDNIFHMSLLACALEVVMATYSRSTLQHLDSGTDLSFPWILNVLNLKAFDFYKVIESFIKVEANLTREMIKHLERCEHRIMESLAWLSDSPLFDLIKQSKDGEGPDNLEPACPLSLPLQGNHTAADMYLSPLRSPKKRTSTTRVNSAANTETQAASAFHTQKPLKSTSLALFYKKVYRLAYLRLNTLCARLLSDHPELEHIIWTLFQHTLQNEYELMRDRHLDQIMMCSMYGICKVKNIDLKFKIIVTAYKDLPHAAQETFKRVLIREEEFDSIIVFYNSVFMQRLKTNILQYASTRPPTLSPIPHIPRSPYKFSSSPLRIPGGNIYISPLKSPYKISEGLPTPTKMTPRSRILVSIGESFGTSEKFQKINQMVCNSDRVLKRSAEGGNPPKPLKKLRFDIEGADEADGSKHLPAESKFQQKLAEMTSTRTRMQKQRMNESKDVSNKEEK

T3: GST-pRb wt (UniProt P06400 379-928, limits assumed)
T3 construct: Expressed in bacteria; the whole protein is named here; also called GST-Rb (WT); GST-RB (WT); not shown: GST tag
T3 sequence (looked up): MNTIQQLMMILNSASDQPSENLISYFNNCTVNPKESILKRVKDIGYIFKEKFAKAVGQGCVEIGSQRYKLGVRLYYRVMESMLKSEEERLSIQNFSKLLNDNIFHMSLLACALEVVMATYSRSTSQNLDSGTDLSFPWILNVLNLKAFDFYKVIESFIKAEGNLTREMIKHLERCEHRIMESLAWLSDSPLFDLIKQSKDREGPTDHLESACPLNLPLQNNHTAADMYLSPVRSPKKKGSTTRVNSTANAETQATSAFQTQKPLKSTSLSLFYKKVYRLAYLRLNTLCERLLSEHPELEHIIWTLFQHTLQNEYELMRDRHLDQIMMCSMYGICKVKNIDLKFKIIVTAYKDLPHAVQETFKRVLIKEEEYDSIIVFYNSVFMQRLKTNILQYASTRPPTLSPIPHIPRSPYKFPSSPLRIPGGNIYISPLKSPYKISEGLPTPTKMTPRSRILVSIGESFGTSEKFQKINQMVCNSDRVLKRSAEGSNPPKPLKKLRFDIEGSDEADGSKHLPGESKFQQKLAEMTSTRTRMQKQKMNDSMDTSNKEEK


Experiments:
[1] = molecular target: T1, hypophosphorylated pRb (endogenous, …); assay: co-immunoprecipitation from C2C12 myotube extracts, Western blot
[2] = molecular target: T2, hyperphosphorylated pRb (endogenous, …); assay: co-immunoprecipitation from C2C12 myoblast extracts, Western blot
GST-pRb wt = molecular target: T3, GST-pRb wt; assay: GST pull-down from extracts of transfected pRb-/- 3T3 cells, Western blot (data not shown)
Method: The association with MyoD was monitored at different stages of myogenic conversion (GM and DM for 36 hours) by Western blot using anti-MyoD antibodies. In FIG. 9B, pRb−/−p53±double knock out derived 3T3 cells were transfected with Flag-HDAC1 and myc-MyoD. Nuclear extracts were prepared and subsequently incubated with increasing amounts of either GST-pRbwt or GST-pRbN757F. […] The HDAC1 present in the supernatant of the GST pull-down was immunoprecipitated with anti-Flag conjugated beads, and the associated MyoD was detected by Western blot by using anti-myc antibodies. In FIG. 9C (upper panel), a graph illustrates the ability to activate MCK-luc reporter by MyoD transiently expressed in pRb−/−p53±3T3 fibroblasts, evaluated with or without the co-expression of pRb wt or pRb N757F. In the lower panel of […], levels of endogenous MHC, p21, myogenin, tubulin, and ectopically produced pRb were evaluated by Western blot in pRb−/−p53±3T3 fibroblasts after transient expression of MyoD alone or in conjunction with either pRb wt or pRb N757F. FIG. 9D is a graph illustrating the ability to activate the MCK-luc reporter by MyoD and MEF2C alone, or in combination with E12, in pRb−/−p53±double knock out derived 3T3 cells was evaluated with or without the co-expression of pRb wt or pRb N757F. […] Transcriptional activation was measured by luciferase assay. […]

Row | Binder | binding result [1] | binding result [2] | binding result (GST-pRb wt)
1 | MyoD (endogenous, in extracts of C2C12 cells; also endogenous MyoD of MD3 and CC42 cells) (other, mouse, UniProt P10085 1-318, looked up, Transcription factor (bHLH)) MELLSPPLRDIDLTGPDGSLCSFETADDFYDDPCFDSPDLRFFEDLDPRLVHMGALLKPEEHAHFPTAVHPGPGAREDEHVRAPSGHHQAGRCLLWACKACKRKTTNADRRKAATMRERRRLSKVNEAFETLKRCTSSNPNQRLPKVEILRNAIRYIEGLQALLRDQDAAPPGAAAFYAPGPLPPGRGSEHYSGDSDASSPRSNCSDGMMDYSGPPSGPRRQNGYDTAYYSEAARESRPGKSAAVSSLDCLSSIVERISTDSPAAPALLLADAPPESPPGPPEGASLSDTEQGTQTPSPDAAPQCPAGSNPNAIYQVL | no binding | no binding | –
2 | myc-MyoD (expressed from a transfected vector in pRb-/- 3T3 cells) (other, UniProt P10085 1-318, looked up, also called myc-tagged MyoD; not shown: myc tag) MELLSPPLRDIDLTGPDGSLCSFETADDFYDDPCFDSPDLRFFEDLDPRLVHMGALLKPEEHAHFPTAVHPGPGAREDEHVRAPSGHHQAGRCLLWACKACKRKTTNADRRKAATMRERRRLSKVNEAFETLKRCTSSNPNQRLPKVEILRNAIRYIEGLQALLRDQDAAPPGAAAFYAPGPLPPGRGSEHYSGDSDASSPRSNCSDGMMDYSGPPSGPRRQNGYDTAYYSEAARESRPGKSAAVSSLDCLSSIVERISTDSPAAPALLLADAPPESPPGPPEGASLSDTEQGTQTPSPDAAPQCPAGSNPNAIYQVL | – | – | no binding
